# Measurements reported in paper PMC3702667.
# What was measured:
# [1] = target: RECQL5 KIX domain (RECQL5_(515–620)) (human) (UniProt O94762); test: crystal structure
# [2] = target: RECQL5 KIX domain (RECQL5_(515–620)) (human) (UniProt O94762); test: SAXS
# [3] = target: Fluorescently labeled RECQL5_(1–620) (human) (UniProt O94762); test: native gel or EMSA
# Sequence of Fluorescently labeled RECQL5_(1–620) (human) (O94762 1-620): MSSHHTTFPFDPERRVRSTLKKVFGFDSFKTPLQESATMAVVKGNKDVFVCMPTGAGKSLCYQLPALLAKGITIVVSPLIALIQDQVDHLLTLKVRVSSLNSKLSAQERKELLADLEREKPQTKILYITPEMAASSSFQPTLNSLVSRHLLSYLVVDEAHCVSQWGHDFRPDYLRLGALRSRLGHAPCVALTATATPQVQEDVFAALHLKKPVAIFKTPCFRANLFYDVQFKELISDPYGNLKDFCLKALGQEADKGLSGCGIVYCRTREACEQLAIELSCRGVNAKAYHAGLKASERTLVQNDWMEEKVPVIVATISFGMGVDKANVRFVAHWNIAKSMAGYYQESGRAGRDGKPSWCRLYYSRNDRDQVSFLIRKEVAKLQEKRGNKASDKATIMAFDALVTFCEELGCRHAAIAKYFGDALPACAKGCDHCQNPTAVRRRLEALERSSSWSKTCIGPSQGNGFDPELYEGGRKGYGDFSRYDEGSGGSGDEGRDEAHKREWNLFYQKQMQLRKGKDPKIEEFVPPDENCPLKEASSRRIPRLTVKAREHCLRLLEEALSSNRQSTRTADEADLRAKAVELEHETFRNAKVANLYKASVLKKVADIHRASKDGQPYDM
Substance,stoichiometry N [1],stoichiometry N [2],Kd [3] [µM]
RECQL5 KIX domain (RECQL5_(515–620)) (from UniProt O94762 515-620) (domain or fragment),2,2,
human RNA polymerase II (from UniProt P24928;P30876) (complex),,,0.04
